Test results from patent publication US20030229006A1, “Amphiphilic oligomers” (priority 1993, published 2003).

How the values were obtained:
Pepsin (Gastric) = conditions: pH 1.3
Chymotrypsin = conditions: pH 6
Pancreatin = conditions: pH 7.5
[1] = pH 1.3
albino mice = test: Blood glucose after oral glucose challenge in fasted mice (Example IV); assay type: in vivo
Method: Comparative studies using bovine insulin were conducted on polymer-insulin conjugates and on native insulin to determine their relative stability and activity in animal models. In the animal studies, the efficacy of the polymer-insulin in lowering the blood level was compared to that of native insulin. Female and male albino mice averaging 25 g in weight were fasted overnight and used in groups of five for each treatment conducted in several phases over a period of two days. […] Conjugate 1) Group 3, 100 μg/kg, orally); or Conjugate 1 (Group 4, 100 μg/kg, subcutaneously) at time 0. […] Animals were fasted overnight before treatment and for the duration of the study. All test materials were prepared in phosphate buffered saline, pH 7.4. […] At the scheduled sample time blood was collected from the tail vein and immediately analyzed for glucose content using a One Touch Digital Glucose Meter (Life Scan).

pancreatomized dogs = test: Blood glucose after oral microemulsion insulin formulation; assay type: in vivo; conditions: 1.0 mg/kg orally, emulsion formulation (native Zinc insulin or Hex-insulin mixture)
Method: (§1) FIG. 6 is a graph of insulin and blood glucose levels as a function of time, after dosing of canine subjects with a microemulsion insulin formulation representative of the present invention. The respective curves shown in the graph include native Zinc insulin; glucose ( ), hex-insulin; glucose (▪); native Zinc insulin; insulin (Δ); and hex-insulin; insulin (Δ).
(§2) Glucose data were normalized to the baseline glucose levels (0 minutes). Dogs were dosed orally with one of two emulsion formulations (native Zinc insulin or Hex-insulin mixture). The dose was adjusted to 1.0 mg/kg. Samples were collected at 30 minute intervals. The data were corrected for Hex-insulin reactivity in the BMI ELISA and Pharmacia RIA tests.

[2] = Closed loop assay, serum insulin by ELISA; assay type: in vivo, Sprague-Dawley rats; conditions: 10 and 30 milligrams of insulin per kilogram
Method: FIG. 3 is a graph of ELISA assay results for native insulin in the NRS pool of various Sprague-Dawley rats, showing insulin concentration as a function of time, prior to and after dosing with insulin, at respective doses of 10 milligrams of insulin per kilogram of body weight, and at 30 milligrams of insulin per kilogram of body weight. Two rats were dosed at 10 milligrams insulin per kilogram of body weight (Rats C and I) and two rats were dosed at 30 milligrams insulin per kilogram of body weight (Rats K and L).
FIG. 4 is a graph of ELISA assay results for insulin in the NRS pool of various Sprague-Dawley rats, showing insulin concentration as a function of time, prior to and after dosing with insulin, at respective doses of 10 milligrams of insulin per kilogram of body weight, and at 30 milligrams of insulin per kilogram of body weight, wherein the insulin is administered as a conjugate, insulin-hexyl-PEG7-OMe.

[3] = Serum insulin after oral microemulsion insulin formulation; assay type: in vivo, dogs; conditions: 1.0 mg/kg orally
Method: as §1, §2

Substance	Stability, Pepsin (Gastric) 1.5 units/mL (Pepsin (Gastric))	Stability, Chymotrypsin (Chymotrypsin)	Stability, Pancreatin 6 units/mL (Pancreatin)	Stability, Acid [1]	Duration of hypoglycemic effect (albino mice; 100 μg/kg subcutaneously)	Blood glucose levels (albino mice; 100 μg/kg subcutaneously, 30 minute time point, control = Group 5, untreated)	Blood glucose levels lowered to a maximum of (albino mice; 1.5 mg/kg orally by gavage)	Time of maximum response after treatment (albino mice; 1.5 mg/kg orally by gavage)	Glucose levels after four hours (albino mice; Group 2, 1.5 mg/kg orally)	Glucose return to baseline by (pancreatomized dogs)	Time of maximal glucose depression (pancreatomized dogs)	Insulin concentration over the timecourse [2]	Time of peak insulin immunoreactivity in the serum after dosing ([3]; emulsion formulation (native Zinc insulin or Hex-insulin mixture))	Serum insulin return to baseline ([3]; emulsion formulation, in all cases)
Insulin (Na): native (bovine) insulin, sodium form, comparator in stability studies	9 min	13 min	77 min	153 h										
native insulin: unconjugated insulin comparator: bovine insulin in Example IV, native Zinc insulin emulsion in Example XIX					3.5 h	approximately 30 % of control	60 % of control	30 min	remained above control	360 to 480 min	9 to 180 min	flat throughout the timecourse	≤ 30 min	120 to 240 min
